Laboratory results reported in paper PMC4860851 (Cell Discovery, 2015).

Key:
[1] = target: Recombinant H1 HA with His Tag from Influenza A/Brisbane/59/2007 H1N1; test: SPR; settings: read off a plot
[2] = recognition of fusion proteins by eight anti-Ncr1 mAbs; settings: glycan lost; control: WT Ncr1 Ig
[3] = full-length expression in HEK 293T (data not shown); settings: glycan lost; control: WT full-length Ncr1
[4] = FACS surface staining of BW transfectants; settings: glycan lost; control: WT Ncr1 zeta
[5] = FACS, lentiviral expression in IL2-activated human NK cells; settings: glycan lost; control: WT full-length Ncr1
[6] = target: T1, HA Ig (extracellular part of the HA protein of PR8 influenza fused to human IgG1), biotin-conjugated (influenza A/Puerto Rico/8/34 H1N1 (PR8), UniProt P03452 18-528, biotin); test: far-Western, overlay or dot blot; settings: both partners purified
T1 construct: also called biotinylated HA Ig

Ncr1 Ig fusion protein (extracellular part of mouse Ncr1 fused to human IgG1) (from UniProt Q8C567) T222A; T225A
response ([1]; parent: est. 190): 35 RU
response ([1]; parent: est. 380): 85 RU
response ([1]; parent: est. 560): 150 RU
response ([1]; parent: est. 700): 210 RU

B1: Ncr1: Ncr1 T222A (protein)
parent chain: MLPTLTALLCLGLCLSQRINTEKETLPKPIIWAKPSIMVTNGNSVNIWCQGAQSASEYQLYFEGSFFALERPKPSRSMNKVRFFISQMTSHTAGIYTCFYQSGELWSKSSNPLKLVVTGLYDTPNLWVYPRPEVTLGENVTFFCQLKTATSKFFLLKERGSNHIQNKYGNIQAEFPMGPVTRAHRGTYRCFGSYNDYAWSFPSEPVTLLITGGVENSSLAPTDPTSSLDYWEFDLSTNESGLQKDSAFWDHTTQNLIRIGLACIILITLVWLLTEDWLSKRKDHEEANRLTNWECRRRWRMQHYFEEEQRNAISMMELKATPGAL
stability_or_folding [2]: no change
localisation_or_trafficking [3]: no change
expression_or_secretion [4]: no change

B2: Ncr1: Ncr1 T225A (protein)
parent chain: MLPTLTALLCLGLCLSQRINTEKETLPKPIIWAKPSIMVTNGNSVNIWCQGAQSASEYQLYFEGSFFALERPKPSRSMNKVRFFISQMTSHTAGIYTCFYQSGELWSKSSNPLKLVVTGLYDTPNLWVYPRPEVTLGENVTFFCQLKTATSKFFLLKERGSNHIQNKYGNIQAEFPMGPVTRAHRGTYRCFGSYNDYAWSFPSEPVTLLITGGVENSSLAPTDPTSSLDYWEFDLSTNESGLQKDSAFWDHTTQNLIRIGLACIILITLVWLLTEDWLSKRKDHEEANRLTNWECRRRWRMQHYFEEEQRNAISMMELKATPGAL
stability_or_folding [2]: no change
localisation_or_trafficking [3]: no change
expression_or_secretion [4]: no change

B3: Ncr1: Ncr1 N139 216 238A (protein)
parent chain: MLPTLTALLCLGLCLSQRINTEKETLPKPIIWAKPSIMVTNGNSVNIWCQGAQSASEYQLYFEGSFFALERPKPSRSMNKVRFFISQMTSHTAGIYTCFYQSGELWSKSSNPLKLVVTGLYDTPNLWVYPRPEVTLGENVTFFCQLKTATSKFFLLKERGSNHIQNKYGNIQAEFPMGPVTRAHRGTYRCFGSYNDYAWSFPSEPVTLLITGGVENSSLAPTDPTSSLDYWEFDLSTNESGLQKDSAFWDHTTQNLIRIGLACIILITLVWLLTEDWLSKRKDHEEANRLTNWECRRRWRMQHYFEEEQRNAISMMELKATPGAL
stability_or_folding [2]: no change
localisation_or_trafficking [3]: decreases
expression_or_secretion [5]: abolishes
expression_or_secretion [4]: decreases

B4: Ncr1: Ncr1 T222 225A (protein)
parent chain: MLPTLTALLCLGLCLSQRINTEKETLPKPIIWAKPSIMVTNGNSVNIWCQGAQSASEYQLYFEGSFFALERPKPSRSMNKVRFFISQMTSHTAGIYTCFYQSGELWSKSSNPLKLVVTGLYDTPNLWVYPRPEVTLGENVTFFCQLKTATSKFFLLKERGSNHIQNKYGNIQAEFPMGPVTRAHRGTYRCFGSYNDYAWSFPSEPVTLLITGGVENSSLAPTDPTSSLDYWEFDLSTNESGLQKDSAFWDHTTQNLIRIGLACIILITLVWLLTEDWLSKRKDHEEANRLTNWECRRRWRMQHYFEEEQRNAISMMELKATPGAL
stability_or_folding [2]: no change
localisation_or_trafficking [3]: no change
expression_or_secretion [5]: no change
expression_or_secretion [4]: no change

B5: Ncr1 Ig fusion protein (extracellular part of mouse Ncr1 fused to human IgG1) (Fc fusion, UniProt Q8C567 17-255, looked up)
chain: QRINTEKETLPKPIIWAKPSIMVTNGNSVNIWCQGAQSASEYQLYFEGSFFALERPKPSRSMNKVRFFISQMTSHTAGIYTCFYQSGELWSKSSNPLKLVVTGLYDTPNLWVYPRPEVTLGENVTFFCQLKTATSKFFLLKERGSNHIQNKYGNIQAEFPMGPVTRAHRGTYRCFGSYNDYAWSFPSEPVTLLITGGVENSSLAPTDPTSSLDYWEFDLSTNESGLQKDSAFWDHTTQN
notes: Carries N-linked glycans (N139, N216, N238) and putative O-linked glycans (T222, T225); also called WT Ncr1 Ig; WT Ncr1
binding result [6]: binds
